Measured values published in the Human Domainome abundance scans (Beltran et al. 2025).
± gives the uncertainty stated by the source.

B1: Retinoic acid receptor RXR-alpha, residues 132 to 208; numbered along this chain, P19793 (parent)
chain: KHICAICGDRSSGKHYGVYSCEGCKGFFKRTVRKDLTYTCRDNKDCLIDKRQRNRCQYCRYQKCLAMGMKREAVQEE

Variants of: B1
Assay: abundance fitness (aPCA) (normalised: wild type 0, dead -1); higher = more abundant; growth selection in yeast, the domain comes from the species named
Conditions: Homo sapiens

Abundance fitness, by site and new letter:
S11: F -0.087 ± 0.031 | G -0.116 ± 0.026 | H -0.019 ± 0.035 | I -0.113 ± 0.031 | L -0.142 ± 0.024 | M -0.111 ± 0.032 | N -0.084 ± 0.029 | P 0.072 ± 0.03 | Q -0.101 ± 0.032 | R -0.162 ± 0.025 | T -0.089 ± 0.028 | V -0.179 ± 0.027 | W -0.066 ± 0.031 | Y -0.096 ± 0.027
S12: A 0.044 ± 0.041 | C -0.657 ± 0.1 | D 0.001 ± 0.053 | E 0.101 ± 0.049 | F -0.112 ± 0.082 | G 0.072 ± 0.032 | H -0.131 ± 0.082 | I -0.196 ± 0.12 | K 0.137 ± 0.056 | L 0.019 ± 0.038 | N 0.091 ± 0.084 | P 0.062 ± 0.061 | Q 0.104 ± 0.064 | R 0.123 ± 0.032 | T 0.114 ± 0.047 | V 0.018 ± 0.036 | W -0.072 ± 0.047
G13: A 0.02 ± 0.035 | C -0.707 ± 0.16 | D 0.019 ± 0.048 | E 0.059 ± 0.044 | F -0.114 ± 0.092 | H 0.025 ± 0.081 | I -0.367 ± 0.11 | K 0.084 ± 0.056 | L -0.082 ± 0.041 | M -0.042 ± 0.052 | N 0.048 ± 0.084 | P -0.118 ± 0.074 | Q -0.009 ± 0.054 | R -0.024 ± 0.031 | S -0.121 ± 0.046 | T -0.005 ± 0.049 | V -0.067 ± 0.039 | W -0.659 ± 0.073 | Y 0.017 ± 0.079
K14: A -0.027 ± 0.031 | C -0.027 ± 0.05 | D 0.018 ± 0.045 | E -0.034 ± 0.035 | F 0.017 ± 0.071 | G -0.004 ± 0.025 | H -0.414 ± 0.1 | I -0.112 ± 0.088 | L -0.094 ± 0.034 | M 0.001 ± 0.042 | N -0.028 ± 0.071 | P -0.004 ± 0.043 | Q 0 ± 0.05 | R -0.115 ± 0.03 | S -0.04 ± 0.037 | T -0.039 ± 0.045 | V -0.057 ± 0.028 | W -0.013 ± 0.034 | Y -0.218 ± 0.1
H15: A -0.13 ± 0.028 | C -0.081 ± 0.041 | D -0.08 ± 0.036 | E -0.065 ± 0.031 | F -0.064 ± 0.037 | G -0.056 ± 0.024 | I -0.181 ± 0.038 | K -0.138 ± 0.034 | L -0.138 ± 0.027 | M -0.234 ± 0.031 | P -0.034 ± 0.028 | Q -0.007 ± 0.034 | R -0.039 ± 0.023 | S -0.196 ± 0.026 | T -0.24 ± 0.029 | V -0.098 ± 0.026 | W -0.078 ± 0.032 | Y -0.05 ± 0.037
Y16: A 0.011 ± 0.027 | C -0.013 ± 0.035 | D 0.046 ± 0.035 | E 0.078 ± 0.03 | F 0.06 ± 0.032 | G 0.015 ± 0.025 | H -0.031 ± 0.035 | K -0.092 ± 0.031 | L -0.035 ± 0.024 | M -0.001 ± 0.032 | N -0.089 ± 0.031 | P -0.082 ± 0.03 | Q 0.063 ± 0.03 | R -0.055 ± 0.024 | S 0.014 ± 0.024 | T -0.04 ± 0.026 | V 0.004 ± 0.025 | W -0.015 ± 0.032
G17: A -0.106 ± 0.03 | C -0.002 ± 0.059 | D 0.031 ± 0.063 | E 0.005 ± 0.037 | F -0.088 ± 0.1 | H -0.053 ± 0.089 | I -0.275 ± 0.087 | K -0.085 ± 0.046 | L -0.107 ± 0.035 | M 0.025 ± 0.044 | N 0.056 ± 0.068 | P -0.277 ± 0.052 | Q -0.089 ± 0.041 | R -0.095 ± 0.027 | S -0.029 ± 0.033 | W -0.163 ± 0.035 | Y -0.1 ± 0.13
V18: A -0.133 ± 0.035 | C -0.078 ± 0.039 | D -0.205 ± 0.047 | E 0.01 ± 0.04 | F -0.144 ± 0.044 | G 0.013 ± 0.035 | H -0.356 ± 0.044 | I -0.142 ± 0.061 | L -0.141 ± 0.029 | M -0.147 ± 0.083 | N -0.574 ± 0.12 | P -0.18 ± 0.038 | R -0.227 ± 0.037 | S -0.328 ± 0.034 | T -0.357 ± 0.099 | Y -0.262 ± 0.038
Y19: A -0.036 ± 0.033 | C -0.116 ± 0.041 | D -0.041 ± 0.038 | E -0.047 ± 0.038 | G -0.207 ± 0.037 | H -0.068 ± 0.041 | I -0.107 ± 0.041 | K -0.032 ± 0.035 | L -0.04 ± 0.029 | M -0.015 ± 0.036 | P 0.006 ± 0.037 | R -0.097 ± 0.031 | S -0.067 ± 0.029 | T -0.073 ± 0.035
S20: A 0.047 ± 0.025 | C 0.049 ± 0.031 | D -0.276 ± 0.036 | E -0.202 ± 0.031 | G 0.065 ± 0.021 | H 0.015 ± 0.03 | I 0.019 ± 0.037 | L 0.05 ± 0.026 | M -0.027 ± 0.035 | N 0.031 ± 0.032 | P -0.09 ± 0.03 | Q 0.012 ± 0.035 | R -0.571 ± 0.029 | V 0.035 ± 0.024 | W 0.045 ± 0.029
